{"source": "patent US20220072032A1", "about": "(AARHUS UNIVERSITET, published 2022)", "binders": {"B1": {"name": "mAb 5E11 (rat hybridoma BNT-5E11-D4/G1-E4) (antibody, V domains shown)", "VH": "EVQLQESGPGLVKPSQSLSLTCSVTGYTITSGYDWSWIRRFPGNTMEWMGDISYSGSTNYNPSLKSRVSITRDTSKNQFFLQLNSVTTGDTATYYCAKLPGWGQGTLVTVSS", "VL": "DVVLTQTPVFLSVTLGDQTSISCRSSQSLEYSDGYTYLEWYLQKPGQSPQLLIYEVSNRFSGVPDRFIGSGSGTDFTLKISRVEPEDLGVYYCFQGTHDPLTFGSGTKLEIK", "notes": "Rat monoclonal antibody, used as conditioned hybridoma medium"}, "B2": {"name": "mAb 8H4 (rat hybridoma BNT-8H4-B8/C7-E11) (antibody, V domains shown)", "VH": "QVTLKESGPGILQPSQTLSLTCSFSGFSLSSSGICVSWIRQPSGKGLEWLATICWEDSKGYNPSLKNRLTISKDTSNNQALLRITSVDTADTAIYYCARVYYWYFDFWGPGTMVTVSS", "VL": "DIVMTQSPSLLSASVGDRVTLSCKGSQNINNYLAWYQQKLGEAPKLLIYNTNSLQTGIPSRFSGSGSGTDCTLTIRSLQPEDVATYFCYQYNNGNTFGGGTKLELK", "notes": "as for B1"}}, "key": {"[1]": {"target": "T1, R93R104R105H139 (35S metabolic label)", "T1 construct": "also called 35S PCSK9 variant R93R104R105H139", "T1 sequence (PCSK9, as listed by the source limits assumed)": "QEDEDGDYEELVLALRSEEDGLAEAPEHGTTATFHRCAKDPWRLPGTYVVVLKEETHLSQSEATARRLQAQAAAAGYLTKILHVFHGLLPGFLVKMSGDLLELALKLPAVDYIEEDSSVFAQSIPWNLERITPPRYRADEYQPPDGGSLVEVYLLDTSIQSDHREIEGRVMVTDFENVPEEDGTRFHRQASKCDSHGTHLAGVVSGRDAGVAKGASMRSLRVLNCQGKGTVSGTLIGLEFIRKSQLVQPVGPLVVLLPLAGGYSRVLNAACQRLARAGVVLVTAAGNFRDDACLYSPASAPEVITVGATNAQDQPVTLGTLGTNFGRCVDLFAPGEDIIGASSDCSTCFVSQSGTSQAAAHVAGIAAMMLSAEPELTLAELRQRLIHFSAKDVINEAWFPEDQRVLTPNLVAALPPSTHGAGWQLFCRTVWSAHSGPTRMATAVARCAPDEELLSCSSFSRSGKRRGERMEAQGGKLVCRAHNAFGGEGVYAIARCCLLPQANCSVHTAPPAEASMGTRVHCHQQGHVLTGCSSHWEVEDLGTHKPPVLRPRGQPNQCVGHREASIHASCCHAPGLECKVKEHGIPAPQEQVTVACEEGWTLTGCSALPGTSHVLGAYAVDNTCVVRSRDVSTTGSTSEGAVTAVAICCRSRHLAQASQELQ", "experiment": "immunoprecipitation of 35S-labelled PCSK9 WT and alanine variants, autoradiography [CONT.) I]"}, "[2]": {"target": "T2, PCSK9 mutant R96R97 (alanine substitutions) (human, UniProt Q8NBP7 31-692, 35S metabolic label)", "T2 construct": "also called variant R96R97", "T2 sequence (Q8NBP7 other isoform, or with tags, fused parts or gaps mutant limits assumed)": "as the sequence (PCSK9, as listed by the source limits assumed) above, with A63R, R66A, R67A, A74R, A75R, A109H counted along it", "experiment": "immunoprecipitation of 35S-labelled PCSK9 WT and alanine variants, autoradiography [CONT.) I]"}, "[3]": {"target": "T3, PCSK9 mutant R104R105 (alanine substitutions) (human, UniProt Q8NBP7 31-692, 35S metabolic label)", "T3 construct": "also called variant R104R105", "T3 sequence (Q8NBP7 other isoform, or with tags, fused parts or gaps mutant limits assumed)": "as the sequence (PCSK9, as listed by the source limits assumed) above, with A63R, A109H counted along it", "experiment": "immunoprecipitation of 35S-labelled PCSK9 WT and alanine variants, autoradiography [CONT.) I]"}, "[4]": {"target": "T4, PCSK9 mutant R93R96R97R104R105H139 (all mutated to alanine) (human, UniProt Q8NBP7 31-692, 35S metabolic label)", "T4 construct": "also called mutant PCSK9; 35S-mutant PCSK9", "T4 sequence (Q8NBP7 other isoform, or with tags, fused parts or gaps mutant limits assumed)": "as the sequence (PCSK9, as listed by the source limits assumed) above, with R66A, R67A counted along it", "experiment": "immunoprecipitation of 35S-labelled PCSK9 mutant R93R96R97R104R105H139 (all to alanine) by mAb, autoradiography (16 h) [CONT.) H]"}, "[5]": {"target": "Wild type human PCSK9 (proprotein convertase subtilisin-like/kexin type 9) (human, UniProt Q8NBP7 31-692, 35S metabolic label in the immunoprecipitations)", "sequence (Q8NBP7 31-692 limits assumed)": "as the sequence (PCSK9, as listed by the source limits assumed) above, with A63R, A74R, A75R, A109H counted along it", "experiment": "cell-based or functional assay"}}}
{"binder": "B1", "values": [{"measurement": "binding result", "setting": "[1]", "result": "no binding"}, {"measurement": "binding result", "setting": "[2]", "result": "no binding"}, {"measurement": "binding result", "setting": "[3]", "result": "no binding"}, {"measurement": "binding result", "setting": "[4]", "result": "no binding (tested: 500 µl conditioned hybridoma medium)"}, {"measurement": "cellular levels of LDLR in HepG2 cells (Western blot)", "setting": "[5]", "result": "~2", "unit": "fold"}]}
{"binder": "B2", "values": [{"measurement": "binding result", "setting": "[4]", "result": "no binding (tested: 500 µl conditioned hybridoma medium)"}, {"measurement": "cellular levels of LDLR in HepG2 cells (Western blot)", "setting": "[5]", "result": "~2", "unit": "fold"}]}
